According to the supplement of paper PMC12764529:
± gives the half width of the 95% confidence interval.

assay: folding stability dG unfold (combined trypsin and chymotrypsin); higher = more stable
Outline: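 Only designs with AlphaFold2 dimer inter-PAE above 15 were retained; each was a mini-protein under 80 residues with no cysteine, in a PA-tagged cDNA display construct. After digestion with trypsin and chymotrypsin and sequencing, K50 was inferred by Bayesian fitting of counts, and unfolding free energy was derived per protease or combined against a sequence-predicted unfolded-state K50 and a shared folded-state K50.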

Sequence | folding stability dG unfold [kcal/mol]
SAGGSSLPPDVTLVEEEKVVETPDGTTIKVKTTTAVSAEGTVRRPVTETITYPEKPETIEKETEIDASAGGS [r16_563_JUSTAS] | 0.122 ± 0.33
SAMELVLEESTELAEDPTNPGVLVPRTTTRELPVEPPPVVVIGSEENAKKLKKKGEVEVPPSGIILIPLSAG [r14_582_JUSTAS] | 0.137 ± 0.24
SKKRILIVTDEKDLSPEEAAKLLEELGIEEVKVVKSAEELKNLPPEVDEVIVVTPPPPVKVEFSPEELEKSA [r9_750_TrROS_Hall] | -0.626 ± 0.43
SAGGSAGGSAGGSHIQFDPEGRWKIRNRDNNNTREFPADDLPKLPPDFDIPKGARIEPYSAGGSAGGSAGGS [r4_91_TrROS] | -0.518 ± 0.19
SAGGSAGGSAGGPVVTETPTTSVVYDPAKGTVTYVTPTVVTFPDGTTTTTVASTTVPLPASAGGSAGGSAGG [r11_308_JUSTAS] | 0.0838 ± 0.2
SAGGSAGGSAGGMIWIPESELSKLPESFKNFKILKKTPLTLPHPSKKNKPVVLVEIEKKESAGGSAGGSAGG [r7_237_JUSTAS] | 0.122 ± 0.53
SAGGSAGGSSSRFEAIKKKILDAFPEDVIKEVKKGPGKIYVVGKPEYIKEIKKLTGSKDIIINSAGGSAGGS [r12_748_JUSTAS] | -0.606 ± 0.34
SAGGSAGGDHVQIEFPIWRMKEVERNPDNGEPRMDMEPIEITIWYPPDDPEKAKKIADEILDFISAGGSAGG [r6_280_TrROS] | 0.409 ± 0.18
SAGGSAGGSAGSMVTPVTLERYVYIEPTPDGVERKRVVPVKVKETVTVDAAGNVTTTTEVLLSAGGSAGGSA [r18_284_JUSTAS] | < -1
SAGGSRMRILNIDPESNRIRVRHPGKPFTFPVDNIEEVTIDPNDGYLTIKMKGETQTIPLDDPDAFSAGGSA [r2_48_TrROS] | 0.0825 ± 0.18
SAGGSAGGSAGKKKITIDYEEIREKFGLPPDDIDNMSMSRVMNYAKPLAKEGKIDEIEISSAGGSAGGSAGG [r11_80_TrROS] | < -1
SAKKVKIKVVEIEKKEDYVLIKIKLEKNVKKGEKVKIIIKNKNGEKKEITIKNGYIYIKMKKKDIEIKISAG [r14_350_TrROS_Hall] | 3.93 ± 0.85
SAGGSASPVLVELPEGVRVELPPDTMTVTIRLPNGTEVVVPLENPEPPDPAAALARARAVVAALPESAGGSA [r15_748_JUSTAS] | 0.185 ± 0.11
SAGGSAGGMTVTVEIPLPPDVPIEEVKEKVKESGYPPTKIEYDPATGKATITLSPEAKEFLEKKSAGGSAGG [r6_307_JUSTAS] | < -1
SAGSVTPLPNGEVVTLTTEKIGNEVYLVTKTTLPDGSVETETTPLKPTPPPPAVPVDVSNPYRAKLALASAG [r5_715_JUSTAS] | -0.814 ± 0.33
SAGGSASSGSMPLTKETDPLDGAGEVERVLYEDGTVVEIVTGADGKPTLRTRKVEIEPPEPLLLLRSAGGSA [r15_478_JUSTAS] | < -1
SAGGSAGGSAWYIRIKSPELRKKLKNAGGIKPTEREPNWVTFKFPGMPPKKRDKIRELIKDSAGGSAGGSAG [r3_398_TrROS] | -0.969 ± 0.26
SAGMKIKVPFKAEVAPGAKPVKVEVWLGDGPPVATARLYYKVPGEEKTEVALIPIDPSTGKVTVFVKPGSAG [r5_136_TrMRF] | 0.0709 ± 0.32
SAGGSAGGSAGGSAAEFVAAHPDVEARPVEEGPGSVLVALRPPGGPELLVRVEGAAVTLESAGGSAGGSAGG [r7_26_JUSTAS] | < -1
SAGGSAEKKINSPEEIKRFAKELEKKGIKILSIDAVKFPSGPVVEYKMPVLHPENGKLSTLYIKSGSAGGSA [r15_123_TrMRF] | < -1
SAGGSAGGSAGVVYPLAGRPVRIDTSATDSLVVTTEPPDGTRTTRTYPDMDLDEVLAALASAGGSAGGSAGG [r11_934_JUSTAS] | 0.0129 ± 0.12
SAGGSAGGSAGMNIVVSSEEEAEKAIKELAKKLGKPNNLKNPKVTVIPLEPTPTGGLKKKSAGGSAGGSAGG [r17_237_JUSTAS] | -0.301 ± 0.16
SADPADVDVPLPVVGTAPALTSAPPGARLELVRLPDLGALARVDDGSVVALTVVVNDDGEVLAVAVEPAPSA [r9_1195_TrMRF] | 0.252 ± 0.066
SAGGSAGGSAGGHPVLLTVPRRYTYLLPGTAPRTVTVPVPVVVEVDDPEVALRLARELEGSAGGSAGGSAGG [r7_21_TrMRF] | < -1

Sequence | folding stability dG unfold [kcal/mol]
SAGGSAGGSAGGGMITFSSESVEEFGSVTPVNVVRRVTRYTTKVGDTIIETTEEEVVPLESAGGSAGGSAGG [r7_248_JUSTAS] | -0.368 ± 0.28
SAGGPIVTSEVVETRPLPDGSTLVTVKTTKLLPLPVETTAPDGTVSPVPPGTPPVTVTETHLVVLEPSAGGS [r16_693_JUSTAS] | 0.0694 ± 0.22
SAGGSAGGSAGGSLEEKAEAAYKKNPTTVPVELPLPGGVPATLTVTRTSPDSLDITRTLSAGGSAGGSAGGS [r10_395_JUSTAS] | < -1
SAGSLPPDVTVPIPRRVRLSESDPALLEAARNGEPVYEELPGDVRVTVELRPLPPDELEVTERVYFPAGSAG [r5_223_JUSTAS] | -0.000299 ± 0.27
SAGGSAGGSAGKLRFRRVGLVLELNEDGSLSLSPIEEEVEVEVPEPLPVGLGLGGKPYLLSAGGSAGGSAGG [r17_418_TrMRF] | -0.0408 ± 0.22
SAGGSAGGSAGGTIQWDPANGRIKITNPNGKKKTIPIPPDDPEEFLKELKDNGIDRIEPVSAGGSAGGSAGG [r7_139_TrROS] | 0.38 ± 0.25
SAGGSAGGSAGNPKYVMVPLKFPDGNPVNIMVSDDEIHIYDMGPNKWRWIPADDLPPEAFSAGGSAGGSAGG [r11_155_TrROS] | 0.215 ± 0.15
SAGGSMKIVKKSEDPSPPVETIEVDPNLDIEKIINELKNQPNVKVDKSTDPNSSKKTITITRPVDGSAGGSA [r2_44_JUSTAS] | -0.224 ± 0.086
SAGGSAGGSAGGSLAPALAAAIAPLLPKDGTFVFVAEPVGDRLVIVTETRPLREDEERGSAGGSAGGSAGGS [r4_350_TrMRF] | -0.707 ± 0.25
SAGGGRMIKLTFKSGETKTIPLSSDYPDAKVEVSEKDDKLYITVTYPNGEKITYEFPLSEVESIEILSAGGS [r16_658_JUSTAS] | 4.7 ± 0.1
SAGGSASSEFNTDKKPPPLPKKSKVINLNIPTPPDETEEEAKKKAEEIANKLKEEGKYGEVTVKIESAGGSA [r15_450_JUSTAS] | 0.5 ± 0.41
SAGGSAGGSAVVYDENTAIVKTPNKDYLLKVKVGDTVDIPDSAGIPVPVKVEKDFPIPPSELSAGGSAGGSA [r18_244_JUSTAS] | -0.943 ± 0.43
SAGGSAGGSAGMEPLKEIEVPFPGGWSIEIEVYPNGIKIEPNPNFDNPQMKKRILDALNPSAGGSAGGSAGG [r11_372_TrROS] | -0.445 ± 0.42
SAGGSAGGSTTMTLTITEYTNDPEGGVKKKKSTTESTVSPEEVEKVAEEVKKKSKNVKVTVNSSAGGSAGGS [r12_342_JUSTAS] | -0.775 ± 0.23
SAGGSAGGSAGGPKVTVFDDHPKKVVLVEFPDKPILAVYDPVTKEVVLLNPDTDELLPLSAGGSAGGSAGGS [r10_434_TrMRF] | -0.889 ± 0.47
SAGGSAGGSAGMVIELPVPGTMSPEEARARAEEVAEELARRTGRPVEVREVRLVTPEELASAGGSAGGSAGG [r17_68_JUSTAS] | -0.733 ± 0.4
SAGGGPGSVSPQPFEEDYTLPDPGEKIRVKVTAYTLPDGSVVERAVSPEPEREFVFTRDGETVTVTPESAGG [r13_117_JUSTAS] | 0.116 ± 0.12
SAGGSAGGSAGGMSSTVTVTTTPVDPNVGLYRVTTTTYYVDPDGPAHPGTSVSLVNRALSSAGGSAGGSAGG [r11_51_JUSTAS] | < -1
SAGGSAGGSAGGNKKKIELHFFFDPGQPAEEAKDFIRGAALENGDTITDVDIHWVPPEDFSAGGSAGGSAGG [r7_703_TrROS] | -0.384 ± 0.3
SAGGSAGGSAGPPPMEPIFTFTNPKEPVTIYRSKDPGNYHIYDPPNGKERTIPPNDPNFFSAGGSAGGSAGG [r11_1007_TrROS] | < -1
SAGGMLKVEVIEVPPDEVGPEKLRAEIKAKYPDVEVRFETLPDGTLRVTVEIPVPEEPSKPLPLEKKSAGGS [r16_535_JUSTAS] | 0.482 ± 0.3
SAGGGLARELFEAENLPVVVEEEERDGKPVLRLVVDAGDKPLVFESDGEDVERAVREAARELGLPGLSAGGS [r8_226_TrMRF] | 0.337 ± 0.15
SAGGMRLEHLRNMIKNMPPGMKDVNINQHPGHGNYTFSVENPNKPVSIPFDSPEDQQEIQELAREYVKSAGG [r13_287_TrROS] | -0.417 ± 0.29
